The chains are these.
B1: HEEH_KT_rd6_0790 (parent)
chain: SEEEEEEWRRAKERGEEIIILGILWKPNDEEAERRIKEALRRV

Here are results for 59 variants from the MegaScale stability set (Tsuboyama et al. 2023).

Variants of B1 are the subject of this data set. Kind of data set: folding stability dG (cDNA display proteolysis); higher = more stable. The note with it: PBS, room temperature.
With SEEEEEEWRRAKPRGEEIIILGILWKPNDEEAERRIKEALRRV [E13P], the “folding stability dG” value turned out to be 0.785 kcal/mol. To SEEEEEEWRRAKYRGEEIIILGILWKPNDEEAERRIKEALRRV [E13Y] belongs 1.78 kcal/mol. The same measure for SEEEEEEWRRAKMRGEEIIILGILWKPNDEEAERRIKEALRRV [E13M]: 2.23 kcal/mol; for SEEEEEEWRRAKLRGEEIIILGILWKPNDEEAERRIKEALRRV [E13L]: 2.4 kcal/mol; for SEEEEEEWRRAKERGMEIIILGILWKPNDEEAERRIKEALRRV [E16M]: 1.93 kcal/mol. To SEEEEEEWRRAKERGGEIIILGILWKPNDEEAERRIKEALRRV [E16G] belongs 1.61 kcal/mol. As to SEEEEEEWRRAKERGSEIIILGILWKPNDEEAERRIKEALRRV [E16S], the “folding stability dG” value was found to be 1.94 kcal/mol. To SEEEEEEWRRAKERGVEIIILGILWKPNDEEAERRIKEALRRV [E16V] belongs 2.15 kcal/mol. To SEEEEEEWRRAKERGIEIIILGILWKPNDEEAERRIKEALRRV [E16I] belongs 2.21 kcal/mol; to SEEEEEEWRRAKERGTEIIILGILWKPNDEEAERRIKEALRRV [E16T], 1.94 kcal/mol. Take SEEEEEEWRRAKERGYEIIILGILWKPNDEEAERRIKEALRRV [E16Y]: the “folding stability dG” value is 1.9 kcal/mol. The same measure for SEEEEEEWRRAKERGKEIIILGILWKPNDEEAERRIKEALRRV [E16K]: 1.96 kcal/mol. Turning to SEEEEEEWRRAKERGREIIILGILWKPNDEEAERRIKEALRRV [E16R], the “folding stability dG” value worked out at 1.66 kcal/mol. For the variant SEEEEEEWRRAKERGLEIIILGILWKPNDEEAERRIKEALRRV [E16L], the “folding stability dG” value was determined as 2.28 kcal/mol.

For SEEEEEEWRRAKERGHEIIILGILWKPNDEEAERRIKEALRRV [E16H], the “folding stability dG” value worked out at 1.93 kcal/mol. The same measure for SEEEEEEWRRAKERGPEIIILGILWKPNDEEAERRIKEALRRV [E16P]: 1.15 kcal/mol. To SEEEEEEWRRAKERGDEIIILGILWKPNDEEAERRIKEALRRV [E16D] belongs 1.95 kcal/mol; to SEEEEEEWRRAKERGAEIIILGILWKPNDEEAERRIKEALRRV [E16A], 1.7 kcal/mol. As to SEEEEEEWRRAKERGQEIIILGILWKPNDEEAERRIKEALRRV [E16Q], the “folding stability dG” value amounted to 2.05 kcal/mol. The same measure for SEEEEEEWRRAKERGWEIIILGILWKPNDEEAERRIKEALRRV [E16W]: 2.03 kcal/mol; for SEEEEEEWRRAKERGFEIIILGILWKPNDEEAERRIKEALRRV [E16F]: 2.04 kcal/mol; for SEEEEEEWRRAKERGNEIIILGILWKPNDEEAERRIKEALRRV [E16N]: 1.71 kcal/mol. The same measure for SEEEEEEWRRAKERNEEIIILGILWKPNDEEAERRIKEALRRV [G15N]: 1.9 kcal/mol; for SEEEEEEWRRAKEREEEIIILGILWKPNDEEAERRIKEALRRV [G15E]: 1.5 kcal/mol; for SEEEEEEWRRAKERCEEIIILGILWKPNDEEAERRIKEALRRV [G15C]: 2.43 kcal/mol.

For SEEEEEEWRRAKERLEEIIILGILWKPNDEEAERRIKEALRRV [G15L], the “folding stability dG” value was 1.6 kcal/mol. To SEEEEEEWRRAKERYEEIIILGILWKPNDEEAERRIKEALRRV [G15Y] belongs 1.44 kcal/mol; to SEEEEEEWRRAKERQEEIIILGILWKPNDEEAERRIKEALRRV [G15Q], 1.81 kcal/mol; to SEEEEEEWRRAKERWEEIIILGILWKPNDEEAERRIKEALRRV [G15W], 1.68 kcal/mol. The same measure for SEEEEEEWRRAKERSEEIIILGILWKPNDEEAERRIKEALRRV [G15S]: 1.61 kcal/mol; for SEEEEEEWRRAKERVEEIIILGILWKPNDEEAERRIKEALRRV [G15V]: 1.32 kcal/mol; for SEEEEEEWRRAKERFEEIIILGILWKPNDEEAERRIKEALRRV [G15F]: 1.57 kcal/mol.

In the case of SEEEEEEWRRAKERREEIIILGILWKPNDEEAERRIKEALRRV [G15R], the “folding stability dG” value stood at 1.66 kcal/mol. For the variant SEEEEEEWRRAKERIEEIIILGILWKPNDEEAERRIKEALRRV [G15I], the “folding stability dG” value was found to be 1.34 kcal/mol. The same measure for SEEEEEEWRRAKERMEEIIILGILWKPNDEEAERRIKEALRRV [G15M]: 1.66 kcal/mol. Turning to SEEEEEEWRRAKERPEEIIILGILWKPNDEEAERRIKEALRRV [G15P], the “folding stability dG” value was found to be 1.03 kcal/mol. To SEEEEEEWRRAKERAEEIIILGILWKPNDEEAERRIKEALRRV [G15A] belongs 1.39 kcal/mol; to SEEEEEEWRRAKERTEEIIILGILWKPNDEEAERRIKEALRRV [G15T], 1.18 kcal/mol. The same measure for SEEEEEEWRRAKERHEEIIILGILWKPNDEEAERRIKEALRRV [G15H]: 1.53 kcal/mol; for SEEEEEEWRRAKERKEEIIILGILWKPNDEEAERRIKEALRRV [G15K]: 1.6 kcal/mol. To SEEEEEEWRRAKERDEEIIILGILWKPNDEEAERRIKEALRRV [G15D] belongs 1.25 kcal/mol.

Regarding SEEEEEEWRRAKEKGEEIIILGILWKPNDEEAERRIKEALRRV [R14K], the “folding stability dG” value came to 2.12 kcal/mol. As for SEEEEEEWRRAKEMGEEIIILGILWKPNDEEAERRIKEALRRV [R14M], the “folding stability dG” value stood at 1.88 kcal/mol. The same measure for SEEEEEEWRRAKENGEEIIILGILWKPNDEEAERRIKEALRRV [R14N]: 1.97 kcal/mol; for SEEEEEEWRRAKESGEEIIILGILWKPNDEEAERRIKEALRRV [R14S]: 1.92 kcal/mol; for SEEEEEEWRRAKEGGEEIIILGILWKPNDEEAERRIKEALRRV [R14G]: 1.42 kcal/mol.

With SEEEEEEWRRAKEAGEEIIILGILWKPNDEEAERRIKEALRRV [R14A], the “folding stability dG” value was 2.04 kcal/mol. The same measure for SEEEEEEWRRAKEEGEEIIILGILWKPNDEEAERRIKEALRRV [R14E]: 1.68 kcal/mol; for SEEEEEEWRRAKEYGEEIIILGILWKPNDEEAERRIKEALRRV [R14Y]: 1.68 kcal/mol.

As to SEEEEEEWRRAKEDGEEIIILGILWKPNDEEAERRIKEALRRV [R14D], the “folding stability dG” value amounted to 1.49 kcal/mol. To SEEEEEEWRRAKEFGEEIIILGILWKPNDEEAERRIKEALRRV [R14F] belongs 1.67 kcal/mol; to SEEEEEEWRRAKEQGEEIIILGILWKPNDEEAERRIKEALRRV [R14Q], 1.83 kcal/mol; to SEEEEEEWRRAKEWGEEIIILGILWKPNDEEAERRIKEALRRV [R14W], 1.58 kcal/mol.

Regarding SEEEEEEWRRAKEHGEEIIILGILWKPNDEEAERRIKEALRRV [R14H], the “folding stability dG” value worked out at 1.67 kcal/mol. To SEEEEEEWRRAKEVGEEIIILGILWKPNDEEAERRIKEALRRV [R14V] belongs 1.76 kcal/mol; to SEEEEEEWRRAKELGEEIIILGILWKPNDEEAERRIKEALRRV [R14L], 2.05 kcal/mol.

Take SEEEEEEWRRAKEPGEEIIILGILWKPNDEEAERRIKEALRRV [R14P]: the “folding stability dG” value is 1.09 kcal/mol. To SEEEEEEWRRAKEIGEEIIILGILWKPNDEEAERRIKEALRRV [R14I] belongs 1.92 kcal/mol; to SEEEEEEWRRAKETGEEIIILGILWKPNDEEAERRIKEALRRV [R14T], 1.79 kcal/mol.
